This is an account of results in PMC10155811 (2022).

The target in one experiment is BubR1. Kind of experiment: ITC; unphosphorylated peptide …. Background: Isothermal titration calorimetry measures the heat released or taken up as one component is titrated into another.
A further experiment has as its target BubR1-p. The experiment in a line: ITC; doubly phosphorylated peptide KLpSPIIEDpSR.
Experiment [1] concerns the target Bub1 peptides encompassing the putative PP2A-B56 binding motif (amino acids 654-FSPIQE-659) (human, UniProt O43683). Kind of experiment: ITC; doubly phosphorylated Bub1 peptide KFpSPIQEKpSP.

B1: B56α (natural protein)
chain: not shown
A word on the Kd: it is a measure of binding affinity in units of concentration. Read a low Kd as a tighter complex. Turning to B1, the Kd is 4.6 µM with BubR1, 0.12 µM with BubR1-p and 41 µM in experiment [1].
